For this assay, the target named is Cqm1 receptor protein (functional form; residues 23–560) (Culex quinquefasciatus). In words: small-angle neutron scattering (SANS); single proteins in 100% D2O buffer C (25 mM HEPES pH 7.5, 25 mM NaCl), 25°C; Cqm1 3.3 mg/ml, hBinB 3.3 mg/ml; ab initio IFT modelling and fits against crystal structures.

Drawing on PMC7055391, this text covers stoichiometry N for one substance.

As usually defined, the stoichiometry N is the number of molecules, sites or subunits per partner or assembly. “Cqm1 receptor protein (functional form; residues 23–560)” had a stoichiometry N of 2.
